Each block holds one molecule with its values, some of them ahead of it.
Legend:
PRL-3 = target: T1, PRL-3 (Homo sapiens, UniProt O75365); test: in vitro PTPase assay, recombinant PRL-3; format: biochemical; conditions: DiFMUP substrate
T1 construct: cDNAs of human PRL-1, PRL-2 and PRL-3 coding region were derived by RT-PCR; made in house; host or cells: DH5a bacteria (E. coli)
Source text: Sodium stibogluconate, suramin, sodium orthovanadate and GST fusion protein of SHP-1 have been described previously (Pathak et al., J. Immunol. 167, 3391 (2001)). Meglumine antimonate was obtained from Aventis. cDNAs of human PRL-1, PRL-2 and PRL-3 coding region were derived by RT-PCR from H9 cells (Safai, et al., Lancet 1, 1438 (1984)) and inserted in frame into the pGEX vector. cDNA of PRL-1R86 was generated by recombinant DNA technique using PRL-1 cDNA as template following established procedures (Jiao, et al., Mol. Cell. Biol. 16, 6985 (1996)). GST fusion proteins of the PRL phosphatases were prepared from DH5a bacteria transformed with the pGEX fusion protein constructs as described previously (Yi, et al., Mol. Cell. Biol. 12, 836 (1992)). cDNAs encoding the PRLs tagged at the N-termini with the Flag epitope (Castrucci, et al., J. Virol. 66, 4647 (1992)) were generated via recombinant DNA technique, sequenced to confirm their identities and cloned into the pBabepuro vector (Yang, et al., Blood 91, 3746 (1998)). Anti-Flag monoclonal antibody (M2, Sigma) was purchased from a commercial source. A synthetic phosphotyrosine peptide (Arg-Arg-Leu-Ile-Glu-Asp-Ala-Gle-Tyr-Al- -a-Ala-Arg-Gly (SEQ ID NO: 3), wherein the tyrosine is phosphorylated; UBI) and DiFMUP (6, 8-difluoro-4-methylumbelliferyl phosphate, Molecular Probes) were purchased as substrates for PTPase assays.
(§1) In vitro PTPase assays were used to determine the effects of compounds on recombinant PTPases, following established procedures using a synthetic phosphotyrosine peptide or DiFMUP as the substrate (Pathak et al., J. Immunol. 167, 3391 (2001)). Briefly, individual PTPases (0.1 μg/reaction) in 50 μL of PTPase buffer (50 mM Tris, pH 7.4) were incubated at 22° C. for 10 minutes or as indicated in the absence or presence of inhibitory compounds. Substrates (0.2 mM phosphotyrosine peptide) were then added and allowed to react at 22° C. for 18 hrs. PTPase activity of individual reactions was measured by adding 100 μL of malachite green solution (UBI) and then quantifying the amounts of free phosphate cleaved by the PTPase from the peptide substrate by spectrometry (OD660 nm). PTPase assays using DiFMUP as a substrate were conducted following a previously described procedure (Matter, et al., Biochem. Biophys. Res. Comm. 283, 1061 (2001)). Relative PTPase activities were calculated based on the formula: (PTPase activity in the presence of an inhibitory compound/PTPase activity in the absence of the compound)× 100%. To assess the reversibility of PTPase inhibition, GST fusion proteins of the PTPases bound on glutathione beads (Pharmacia) were pre-incubated with cold Tris buffer (50 mM Tris, pH 7.0) or Tris buffer containing the inhibitor at 4° C. for 30 minutes. The beads were then washed three times in cold Tris buffer or not washed prior to subjecting to in vitro PTPase assays.

SHP-1 = target: T2, SHP-1 (Mus musculus, UniProt P29351); test: in vitro PTPase assay, GST/SHP-1; format: biochemical
T2 construct: made in house
Description: In vitro PTPase activities were measured using the commercial protein tyrosine phosphatase assay kit (Upstate Biotechnology, Inc. (“UBI”)) following established procedure known to one of skill in the art. […] Briefly, 0.01 μg of GST/PTPase fusion proteins was incubated in 50 μl of Tris buffer (10 mM Tris, pH 7.4) containing different concentrations of inhibitors or chemicals (0-1,000 μg/ml) at 22° C. for 10 minutes, followed by addition of 0.2 mM of the phosphotyrosine peptide and incubation at 22° […] 100 μl of Malachite Green solution was added and incubated for 5 minutes, and the absorbance at 660 nm was measured after 5 minutes.
To assess the reversibility of inhibition of SHP-1 by PTPase inhibitors, GST/SHP-1 fusion protein bound on glutathione beads were pre-incubated in cold Tris buffer or Tris buffer containing the PTPase inhibitors at 4° C. for 30 minutes. The beads were then either subjected to in vitro PTPase assays or washed 3 times in Tris buffer then subjected to in vitro PTPase assays.
as §1, with “Briefly,” for “In vitro PTPase assays were used to determine the effects of compounds on recombinant PTPases, following established procedures using a synthetic phosphotyrosine peptide or DiFMUP as the substrate (Pathak et al., J. Immunol. 167, 3391 (2001)). Briefly,”, “PTPase assays using DiFMUP as a substrate were conducted following a previously described procedure (Matter, et al., Biochem. Biophys. Res. Comm. 283, 1061 (2001)).” left out

GSTm8 = test: in vitro PTPase assay, GSTm8; format: biochemical; conditions: 3-4 μg/ml or 10-100 μg/ml
Source text: (§2) In vitro PTPase assays were used to determine the effects of levamisole (Sigma), pentamidine (American Pharmaceutical Partners, Inc.), and ketoconazole (Sigma) on recombinant PTPases, following established procedures (Pathak et al., J. Immunol. 167, 3391 (2001); Pathak et al., Leukemia 16, 2285 (2002), Yi et al., J. Immunol. 169, 5978 (2002)) using a synthetic phosphotyrosine peptide or DiFMUP as the substrate as detailed above in section I.A.2.

MKP1 = target: T3, MKP1 (Homo sapiens, UniProt P28562); test: in vitro PTPase assay, GST/MKP1; format: biochemical; conditions: levamisole, pentamidine, ketoconazole
T3 construct: a pGEX construct containing the coding region of MKP1 cDNA derived by RT-PCR; made in house; host or cells: DH5a bacteria (E. coli)
T3 sequence (P28562 1-367): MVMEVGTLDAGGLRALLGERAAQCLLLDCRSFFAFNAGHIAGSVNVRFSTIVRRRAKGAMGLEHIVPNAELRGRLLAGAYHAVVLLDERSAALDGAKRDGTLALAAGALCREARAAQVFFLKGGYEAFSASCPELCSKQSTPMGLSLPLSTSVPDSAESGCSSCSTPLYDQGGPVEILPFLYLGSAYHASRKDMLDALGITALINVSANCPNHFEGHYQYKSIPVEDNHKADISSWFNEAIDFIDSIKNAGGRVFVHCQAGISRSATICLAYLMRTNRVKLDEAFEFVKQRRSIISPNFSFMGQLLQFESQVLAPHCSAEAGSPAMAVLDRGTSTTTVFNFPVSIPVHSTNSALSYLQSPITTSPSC
Description: In vitro PTPase activities were measured using the commercial protein tyrosine phosphatase assay kit (Upstate Biotechnology, Inc. (“UBI”)) following established procedure known to one of skill in the art. This assay measures the in vitro dephosphorylation of a synthetic phosphotyrosine peptide of the sequence Arg-Arg-Leu-Ile-Glu-Asp-Ala-Gle-T- -yr-Ala-Ala-Arg-Gly, wherein the tyrosine is phosphorylated (SEQ ID NO: 3). Briefly, 0.01 μg of GST/PTPase fusion proteins was incubated in 50 μl of Tris buffer (10 mM Tris, pH 7.4) containing different concentrations of inhibitors or chemicals (0-1,000 μg/ml) at 22° C. for 10 minutes, followed by addition of 0.2 mM of the phosphotyrosine peptide and incubation at 22° C. for 18 hours. 100 μl of Malachite Green solution was added and incubated for 5 minutes, and the absorbance at 660 nm was measured after 5 minutes.
as §2

[1] = tested on: T4, Synthetic phosphotyrosine peptide Arg-Arg-Leu-Ile-Glu-Asp-Ala-Gle-Tyr-Ala-Ala-Arg-Gly (SEQ ID NO: 3), tyrosine phosphorylated
T4 sequence: RRLIEDAEYAARG

[2] = target: T5, Synthetic phosphotyrosine peptide Arg-Arg-Leu-Ile-Glu-Asp-Ala-Gle-Tyr-Ala-Ala-Arg-Gly (SEQ ID NO: 3), tyrosine phosphorylated (not fully specified)
T5 chain: RRLIEDAEYAARG

T1 sequence (O75365 whole entry): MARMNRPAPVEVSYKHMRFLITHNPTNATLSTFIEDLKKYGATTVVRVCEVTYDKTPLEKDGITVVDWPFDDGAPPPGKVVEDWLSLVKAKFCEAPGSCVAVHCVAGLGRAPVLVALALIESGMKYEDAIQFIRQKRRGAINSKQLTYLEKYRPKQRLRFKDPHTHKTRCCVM

Molecule: [Na+].[Na+].[Na+].[O]=[V]([O-])([O-])[O-] [sodium orthovanadate]
- inhibition of PRL-3 compared with sodium stibogluconate (PRL-3): less effective

- inhibition of SHP-1 compared with sodium stibogluconate (SHP-1; comparable conditions): less effective
- inhibition of PRL-3 compared with sodium stibogluconate (PRL-3): less effective
Molecule: Cc1ccc(C(=O)Nc2ccc(S(=O)(=O)O)c3cc(S(=O)(=O)O)cc(S(=O)(=O)O)c23)cc1NC(=O)c1cccc(NC(=O)Nc2cccc(C(=O)Nc3cc(C(=O)Nc4ccc(S(=O)(=O)O)c5cc(S(=O)(=O)O)cc(S(=O)(=O)O)c45)ccc3C)c2)c1 [Suramin]
- inhibition of GST/SHP-1 after washing (reversibility) (SHP-1; pre-incubated 30 min at 4 °C, beads washed 3 times): almost completely removed by the washing process

- inhibitory activity against SHP-1 (SHP-1; 3-4 μg/ml or 10-100 μg/ml): no obvious inhibitory activity
- inhibitory activity against GSTm8 (GSTm8): no obvious inhibitory activity
- inhibition of MKP1 (MKP1): substantial inhibition
Molecule: c1ccc([C@H]2CN3CCSC3=N2)cc1 [levamisole]

Molecule: GST fusion protein of mitogen-activated protein kinase phosphatase 1 (MKP1)
- PTPase activities against the peptide substrate (660 nm absorbance above background) [1]: 660 nm absorbance approximately 0.6 above background (0.03)

Molecule: GST fusion protein of SHP-1
- PTPase activities against the peptide substrate (660 nm absorbance above background) [1]: 660 nm absorbance approximately 0.6 above background (0.03)

Molecule: GST fusion protein of SHP-2
- PTPase activities against the peptide substrate (660 nm absorbance above background) [1]: 660 nm absorbance approximately 0.6 above background (0.03)

Molecule: GST fusion protein of protein tyrosine phosphatase 1B (PTP1B)
- PTPase activities against the peptide substrate (660 nm absorbance above background) [1]: 660 nm absorbance approximately 0.6 above background (0.03)

B1: GST fusion protein of PRL-1R86 (recombinant PRL-1 protein containing R86) (protein)
chain: MARMNRPAPVEVTYKNMRFLITHNPTNATLNKFIEELKKYGVTTIVRVCEATYDTTLVEKEGIHVLDWPFDDGAPPSNQIVDDWLRLVKIKFREEPGCCIAVHCVAGLGRAPVLVALALIEGGMKYEDAVQFIRQKRRGAFNSKQLLYLEKYRPKMRLRFKDSNGHRNNCCIQ
- in vitro PTPase activity [2]: showed in vitro PTPase activity similar to that of wild type PRL-1

B2: Flag-PRL-1R86 (Flag-tagged PRL-1 R86 mutant) (protein)
chain: MARMNRPAPVEVTYKNMRFLITHNPTNATLNKFIEELKKYGVTTIVRVCEATYDTTLVEKEGIHVLDWPFDDGAPPSNQIVDDWLRLVKIKFREEPGCCIAVHCVAGLGRAPVLVALALIEGGMKYEDAVQFIRQKRRGAFNSKQLLYLEKYRPKMRLRFKDSNGHRNNCCIQ
- phosphatase activities of anti-Flag immunocomplexes [2]: showed phosphatase activities well above the background activity of the vector control cells

B3: Flag-PRL-1 (human PRL-1 tagged at the N-terminus with the Flag epitope) (protein)
chain: MARMNRPAPVEVTYKNMRFLITHNPTNATLNKFIEELKKYGVTTIVRVCEATYDTTLVEKEGIHVLDWPFDDGAPPSNQIVDDWLSLVKIKFREEPGCCIAVHCVAGLGRAPVLVALALIEGGMKYEDAVQFIRQKRRGAFNSKQLLYLEKYRPKMRLRFKDSNGHRNNCCIQ
- PTPase activity of anti-Flag immunocomplexes [2]: a markedly higher PTPase activity (about 23 folds) over that of control transfectants
- phosphatase activities of anti-Flag immunocomplexes [2]: showed phosphatase activities well above the background activity of the vector control cells

B4: GST fusion protein of PRL-1 (recombinant wild type PRL-1) (protein)
chain: MARMNRPAPVEVTYKNMRFLITHNPTNATLNKFIEELKKYGVTTIVRVCEATYDTTLVEKEGIHVLDWPFDDGAPPSNQIVDDWLSLVKIKFREEPGCCIAVHCVAGLGRAPVLVALALIEGGMKYEDAVQFIRQKRRGAFNSKQLLYLEKYRPKMRLRFKDSNGHRNNCCIQ
- in vitro PTPase activity [2]: showed in vitro PTPase activity similar to that of wild type PRL-1
